We go through 4 molecules from article PMC4081078.

In data set [1] the target is T1, TRF2 (UniProt Q15554 1-542). The data set can be described thus: pull-down, immunoblot.
In data set [2] the target is T1, TRF2. The data set can be described thus: EMSA.
In the next data set the target is TRF2ΔB (UniProt Q15554 87-542). The data set can be described thus: EMSA.
Data set [3] addresses T1, TRF2. The data set can be described thus: EMSA. The source holds these as a separate data set.
Another data set concerns the target TRF1 (UniProt P54274 1-439). The data set can be described thus: EMSA.
Data set [4] has as its target T1, TRF2. The data set can be described thus: EMSA. The source holds these as a separate data set.

T1 sequence (Q15554 whole entry): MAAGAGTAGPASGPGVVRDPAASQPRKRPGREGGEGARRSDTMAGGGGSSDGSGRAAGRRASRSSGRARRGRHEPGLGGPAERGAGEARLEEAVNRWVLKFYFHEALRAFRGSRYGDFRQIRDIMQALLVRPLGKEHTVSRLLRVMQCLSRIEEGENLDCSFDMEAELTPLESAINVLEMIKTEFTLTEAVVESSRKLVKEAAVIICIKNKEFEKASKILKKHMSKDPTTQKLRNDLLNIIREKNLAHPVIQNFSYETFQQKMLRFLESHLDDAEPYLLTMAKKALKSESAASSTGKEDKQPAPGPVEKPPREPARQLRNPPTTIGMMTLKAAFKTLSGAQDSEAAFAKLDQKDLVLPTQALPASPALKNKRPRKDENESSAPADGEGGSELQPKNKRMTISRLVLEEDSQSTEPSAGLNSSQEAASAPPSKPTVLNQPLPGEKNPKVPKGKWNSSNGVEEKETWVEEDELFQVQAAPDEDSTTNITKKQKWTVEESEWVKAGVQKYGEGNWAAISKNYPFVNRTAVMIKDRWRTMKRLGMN
Sequence of TRF2ΔB (Q15554 87-542, stated change not applied): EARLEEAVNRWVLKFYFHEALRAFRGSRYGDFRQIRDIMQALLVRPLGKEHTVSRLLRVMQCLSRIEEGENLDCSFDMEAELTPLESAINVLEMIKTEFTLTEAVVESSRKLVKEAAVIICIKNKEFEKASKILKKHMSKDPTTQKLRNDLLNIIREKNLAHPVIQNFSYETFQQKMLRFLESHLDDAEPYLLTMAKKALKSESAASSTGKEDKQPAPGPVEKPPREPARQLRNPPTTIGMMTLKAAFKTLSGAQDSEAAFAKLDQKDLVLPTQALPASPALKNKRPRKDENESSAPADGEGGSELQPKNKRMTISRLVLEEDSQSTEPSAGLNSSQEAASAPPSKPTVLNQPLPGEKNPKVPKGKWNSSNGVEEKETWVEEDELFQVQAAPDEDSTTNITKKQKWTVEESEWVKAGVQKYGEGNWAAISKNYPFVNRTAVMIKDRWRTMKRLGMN
Sequence of TRF1 (P54274 whole entry): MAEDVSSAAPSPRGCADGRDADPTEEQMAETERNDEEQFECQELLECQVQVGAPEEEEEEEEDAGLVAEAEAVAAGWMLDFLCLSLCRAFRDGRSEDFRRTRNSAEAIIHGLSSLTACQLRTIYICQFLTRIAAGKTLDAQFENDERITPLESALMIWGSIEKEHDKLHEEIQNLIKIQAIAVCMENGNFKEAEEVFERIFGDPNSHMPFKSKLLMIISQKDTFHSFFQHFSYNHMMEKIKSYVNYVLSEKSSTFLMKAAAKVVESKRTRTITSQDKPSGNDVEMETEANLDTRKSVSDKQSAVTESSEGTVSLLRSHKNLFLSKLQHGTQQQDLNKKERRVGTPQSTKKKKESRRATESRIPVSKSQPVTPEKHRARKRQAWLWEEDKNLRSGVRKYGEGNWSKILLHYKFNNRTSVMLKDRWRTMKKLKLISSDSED

B1: b-G68telo/C50telo (dsDNA)
DNA 1: AGCTGAGCATGTCCAGACATGTCCTAGGGTTAGGGTTAGGGTTAGGGTTAGGGTTAGGGTTAGGGTTA
DNA 2: TAACCCTAACCCTAACCCTAACCCTAGGACATGTCTGGACATGCTCAGCT
modifications: phosphorothioate after nt 1 of each strand
For B1, the binding result with TRF2 [1] is “binds”.

B2: *G77telo/C38telo (dsDNA)
DNA 1: AGCTGAGCATGTCCAGACATGTCCTAGGGTTAGGGTTAGGGTTAGGGTTAGGGTTAGGGTTAGGGTTAGGGTTAGGG
DNA 2: TAACCCTAACCCTAGGACATGTCTGGACATGCTCAGCT
modifications: phosphorothioate after nt 1 of each strand
In the case of B2, the binding result with TRF2 [2] was “binds”.

B3: *G77telo/C50telo (dsDNA)
DNA 1: B2 DNA 1
DNA 2: B1 DNA 2
modifications: phosphorothioate after nt 1 of each strand
On to B3, for which the binding result with TRF2ΔB and in the data set with TRF2 [3] was “binds” each time.

B4: *G77telo/C77telo (dsDNA)
DNA 1: B2 DNA 1
DNA 2: CCCTAACCCTAACCCTAACCCTAACCCTAACCCTAACCCTAACCCTAACCCTAGGACATGTCTGGACATGCTCAGCT
modifications: phosphorothioate after nt 1 of each strand
Regarding B4, the binding result with TRF1, with TRF2ΔB and with TRF2 [4] was “binds” each time.
